In PMC7320144 (Nature Communications, 2020):

Columns and labels:
[1] = biological target: T1, PfISN1 (IMP-specific nucleotidase 1) (Plasmodium falciparum, UniProt A0A144A134); assay: crystal structure; enzyme activation at pH […]; format: biochemical
T1 construct: gene ISN1; wild-type, full-length

[2] = system: O=[N+]([O-])c1ccc(OP(=O)(O)O)cc1; assay: purified protein; format: biochemical, Plasmodium falciparum; conditions: Mg2+; 25.0 °C
[3] = biological target: PfISN1 D172N (full-length inactive mutant) (Plasmodium falciparum); assay: crystal structure
[4] = biological target: PfISN1 D172N-ΔN30 (Plasmodium falciparum); assay: crystal structure
[5] = biological target: the molecule itself; assay: crystal structure; vapour diffusion in sitting drops at 292 K; protein 13 mg/mL in 50 mM Tris-HCl pH 8.0, 100 mM NaCl (or 50 mM MES pH 5.0, 100 mM NaCl); apo, ATP-bound or IMP-Mg2+-bound forms; homo-tetramer

Molecule: Nc1ncnc2c1ncn2[C@@H]1O[C@H](COP(=O)(O)OP(=O)(O)OP(=O)(O)O)[C@@H](O)[C@H]1O [ATP]
- EC50 [1]: 3.8 ± 0.7 mM

Molecule: PfISN1 (IMP-specific nucleotidase 1) (Plasmodium falciparum 3D7; D172N)
- Km [2]: 1510 ± 150 µM
- kcat [2]: 0.28 ± 0.01 s⁻¹
- kcat/Km [2]: 190 ± 20 M⁻¹ s⁻¹

Molecule: PfISN1 D172N (full-length inactive mutant) (from UniProt A0A144A134 1-444) (enzyme)
- stoichiometry N [3]: 4

Molecule: PfISN1 D172N-ΔN30 (from UniProt A0A144A134 31-444) (domain or fragment)
- stoichiometry N [4]: 4

B1: Plasmodium falciparum IMP-specific nucleotidase 1 (PfISN1), wild type (enzyme, UniProt A0A144A134 1-444, looked up)
chain: MKNLDINTFDNIEDIPLGSSEQDPYDFFTLSDRNVMNSDMKKNIVQWNSRYSYNQLKNKDSLIMFLVEIFRSLFVSNCIDKNIDNVLLSIEEMFIDHYYNPQHSRLKYLIDDVGIFFTKLPITKAFHTYNKKYRITKRLYAPPTFNEVRHILNLAQILSLEEGLDLLTFDADETLYPDGHDFNDEVLASYISCLLKKMNIAIVTAASYNNDAEKYQKRLENLLKYFSKHNIKDGSYKNFYVMGGESNYLFKCNEEATLYSVPENEWRHYKKFVDYDTVQEILNISEKCLEKVIKDFGLCAQIQRKEKSIGLVPNKIPSLNIKNEQKNYMIKYEVLEEAVIRIKKEIIKNKITAPYCAFNGGQDLWVDVGNKAEGLLILQKLLKIQKKKCCHIGDQFLHSGNDFPTRFCSLTLWVSNPQETKACLKSIMHLNIKSFIPEVLYENQ
notes: IMP-specific 5'-nucleotidase 1 (ISN1, EC 3.1.3.99) of Plasmodium falciparum, 444 amino acids, gene PF3D7_1206100; domains M1-K59 (NTRD), D60-T143 (OD), F144-K270 and K371-Q444 (CD), K271-N370 (cap); Cloned into pET-21bN; details of constructs and of purification for structural studies are in Supplementary Methods; A selenomethionine derivative (E. coli B834 (DE3)) was used for phasing; also …
- stoichiometry N [5]: 4

B2: PfISN1-ΔN59 (domain or fragment, Plasmodium falciparum, UniProt A0A144A134 60-444, looked up)
chain: DSLIMFLVEIFRSLFVSNCIDKNIDNVLLSIEEMFIDHYYNPQHSRLKYLIDDVGIFFTKLPITKAFHTYNKKYRITKRLYAPPTFNEVRHILNLAQILSLEEGLDLLTFDADETLYPDGHDFNDEVLASYISCLLKKMNIAIVTAASYNNDAEKYQKRLENLLKYFSKHNIKDGSYKNFYVMGGESNYLFKCNEEATLYSVPENEWRHYKKFVDYDTVQEILNISEKCLEKVIKDFGLCAQIQRKEKSIGLVPNKIPSLNIKNEQKNYMIKYEVLEEAVIRIKKEIIKNKITAPYCAFNGGQDLWVDVGNKAEGLLILQKLLKIQKKKCCHIGDQFLHSGNDFPTRFCSLTLWVSNPQETKACLKSIMHLNIKSFIPEVLYENQ
notes: PfISN1 (444 amino acids, gene PF3D7_1206100) with the N-terminal regulatory domain (NTRD, M1 to K59) deleted; limits worked out from the name ΔN59 and the printed domain limits; Co-crystallized with IMP, IMP not observed in the structure; Construct details are in Supplementary Methods; also called ∆N59-truncated PfISN1; source: E. coli BL21-CodonPlus (DE3)-RIL (structural studies), purified
- stoichiometry N [5]: 4

B3: PfISN1-ΔC10 (domain or fragment, Plasmodium falciparum, UniProt A0A144A134 1-434, looked up)
chain: MKNLDINTFDNIEDIPLGSSEQDPYDFFTLSDRNVMNSDMKKNIVQWNSRYSYNQLKNKDSLIMFLVEIFRSLFVSNCIDKNIDNVLLSIEEMFIDHYYNPQHSRLKYLIDDVGIFFTKLPITKAFHTYNKKYRITKRLYAPPTFNEVRHILNLAQILSLEEGLDLLTFDADETLYPDGHDFNDEVLASYISCLLKKMNIAIVTAASYNNDAEKYQKRLENLLKYFSKHNIKDGSYKNFYVMGGESNYLFKCNEEATLYSVPENEWRHYKKFVDYDTVQEILNISEKCLEKVIKDFGLCAQIQRKEKSIGLVPNKIPSLNIKNEQKNYMIKYEVLEEAVIRIKKEIIKNKITAPYCAFNGGQDLWVDVGNKAEGLLILQKLLKIQKKKCCHIGDQFLHSGNDFPTRFCSLTLWVSNPQETKACLKSIMHLNIKS
notes: PfISN1 (444 amino acids, gene PF3D7_1206100) truncated by ten residues at the C-terminus; Construct details are in Supplementary Methods; also called ∆C10-truncated PfISN1; source: E. coli BL21-CodonPlus (DE3)-RIL (structural studies), purified
- stoichiometry N [5]: 4
